This is an account of results in publication PMC8683085, “Serine ADP-ribosylation marks nucleosomes for ALC1-dependent chromatin remodeling” (eLife, 2021).

The target in this assay is unmodified nucleosome (UniProt P68431).

Substance “ALC1 (full-length, 6xHis-1xFLAG-ALC1) (from UniProt Q86WJ1 1-897) (enzyme)” had an ALC1 nucleosome remodeling rate constant (REA assay) below 0.0003 min⁻¹.
